B1: TN3-2-B1-c22-11 (designed binder)
chain: ALQTVCLKGTKVHMKCFLAFTQTKTFHEASEDCISRGGTLSTPQTGSENDALYEYLRQSVGNEAEIWLGLNKRWSRYFWVDMTGTRIAYKNWERPEDAQPDPSNWENCAVLSGAANGKWFGKRCRDQLPYICQFGIV
notes: Monomeric tetranectin CTLD clone
B2: TN3-2-B1-C22 (designed binder)
chain: B1 chain with R94L, E96Q, D97H
notes: Monomeric tetranectin CTLD clone; also called monomeric form of TN2B1C22
B3: TN3-2-B1-c22-10 (designed binder)
chain: B1 chain with E93V, P95Q, E96R
notes: as for B1
B4: TN3-2-B1-C24 (designed binder)
chain: B1 chain with P95T, E96T
notes: as for B1
B5: TN3-2-B1-C20 (designed binder)
chain: B1 chain with P95R, E96Q
notes: as for B1
B6: TN3-2-B1-C53 (designed binder)
chain: B1 chain with P95L, E96A, S103F
notes: as for B1
B7: TN3-2-B1-c22-7 (designed binder)
chain: B1 chain with E93G, P95K
notes: as for B1
B8: TN3-2-B1-c22-15 (designed binder)
chain: B1 chain with E93Q, R94L, E96Q, D97H, Q99D, D101A
notes: as for B1
B9: TN3-2-B1-c22-8 (designed binder)
chain: B1 chain with E93A, P95T, E96Q
notes: as for B1
B10: TN3-2-B1-c22-12 (designed binder)
chain: B1 chain with E93S, P95Q
notes: as for B1
B11: TN3-2-B1-C29 (designed binder)
chain: B1 chain with R94G, P95I, D97W, S103T, W105F
notes: as for B1
B12: TN3-2-B1-c22-16 (designed binder)
chain: B1 chain with E93L, R94L, E96Q, D97H, A98E, D101E
notes: as for B1
B13: TN3-2-B1-C31 (designed binder)
chain: B1 chain with R94H, P95S, E96S
notes: as for B1
B14: TN3-2-B1-c22-3 (designed binder)
chain: B1 chain with E93K, R94L, E96Q, D97H, Q99H, D101E
notes: as for B1
B15: TN3-2-B1-c22-13 (designed binder)
chain: B1 chain with P95L, E96R, A98S
notes: as for B1
B16: TN3-2-B1-c22-9 (designed binder)
chain: B1 chain with P95N, E96R
notes: as for B1
B17: TN3-2-B1-c22-6 (designed binder)
chain: B1 chain with E93M, R94L, P95E, E96K
notes: as for B1
B18: TN3-2-B1-c22-4 (designed binder)
chain: B1 chain with E93A, R94L, E96Q, D97H, Q99S, D101S
notes: as for B1
B19: TN3-2-B1-c22-1 (designed binder)
chain: B1 chain with E93K, R94L, E96Q, D97H, Q99N, D101S
notes: as for B1
B20: TN3-2-B1-c22-2 (designed binder)
chain: B1 chain with E93L, R94L, E96Q, D97H, Q99N, D101N
notes: as for B1
B21: TN3-2-B1-C1 (designed binder)
chain: B1 chain with R94L, P95L, E96S, S103V
notes: as for B1
B22: TN3-2-B1-C22-7 (designed binder)
chain: B1 chain with E93G, P95K
notes: Monomeric tetranectin CTLD clone; also called TN3-B1-C22-7; monomeric form of TN2B1C22-7
B23: TN3-2-B1-c7 (designed binder)
chain: B1 chain with R94L, P95A, E96S, S103A
notes: as for B1
B24: TN3-2-B1-C19 (designed binder)
chain: B1 chain with R94L, P95I, E96R, S103A
notes: as for B1

Positions count from the first letter of the chain named.

T1 sequence (P01375 77-233 limits assumed): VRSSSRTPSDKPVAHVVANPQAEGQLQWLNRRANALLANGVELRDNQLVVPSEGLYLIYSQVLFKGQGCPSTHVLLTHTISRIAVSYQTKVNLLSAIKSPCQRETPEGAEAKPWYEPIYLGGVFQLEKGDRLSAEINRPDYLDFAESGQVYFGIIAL

The test addresses T1, human tumor necrosis factor (TNF) (human, UniProt P01375 77-233).
T1 construct: The assays use 'human TNF'; The target of the phage display selection is printed only as 'TNF'; also called TNF-alpha
Briefly: phage display selection and maturation.
Regarding B1, the binding result is on record as “binds”. Take B2: the binding result was “binds”. Turning to B3, the binding result is “binds”. With B4, the binding result is reported as “binds”.

As to B5, the binding result is on record as “binds”. Regarding B6, the binding result is reported as “binds”. For the molecule B7, the binding result is “binds”.

B8: the binding result is on record as “binds”.

On to B9, for which the binding result is on record as “binds”. Regarding B10, the binding result is given as “binds”.

Take B11: the binding result was “binds”. For the molecule B12, the binding result is recorded as “binds”. As to B13, the binding result is “binds”. Consider B14, for which the binding result is “binds”. B15: the binding result is recorded as “binds”. With B16, the binding result is listed as “binds”. Under B17 stands “binds”; under B18, “binds”; under B19, “binds”. As for B20, the binding result is “binds”. For the molecule B21, the binding result was “binds”.

Consider B22, for which the binding result is “binds”.

For the molecule B23, the binding result is given as “binds”. The result for B24 reads “binds”.

For the origin of these results see US20090155843A1 (ANAPHORE, published 2009).
